From patent US20020147146A1
Non-standard residues stand in square brackets, D forms with d. No end group written: not given here. pS = N[C@@H](COP(=O)(O)O)C(=O)O

Tests used:
[1] = tested on: T1, 9CREB ILSRRPSYR (non-phosphorylated peptide)
T1 sequence: ILSRRPSYR

[2] = tested on: T2, peptide #1 KRREILSRRPS(p)YR (derived from CREB protein)
T2 sequence: KRREILSRRPSYR

[3] = tested on: T3, peptide #4 ILSRRPEYR (9ECREB)
T3 sequence: ILSRRPEYR

[4] = tested on: T4, peptide #2 KRREILSRRPSYR (non-phosphorylated CREB peptide)
T4 sequence: KRREILSRRPSYR

[5] = tested on: T5, peptide #3 ILSRRPS(p)YR (p9CREB)
T5 sequence: ILSRRPSYR

[6] = target: purified recombinant rabbit GSK-3 (glycogen synthase kinase-3) (rabbit); assay: cell-based or functional assay
[7] = target: purified recombinant rabbit GSK-3 (glycogen synthase kinase-3) (rabbit); assay: in vitro kinase assay of purified GSK-3 with PGS-1 substrate and 32P-ATP, Lineweaver-Burk analysis (competitive inhibition)

## purified recombinant rabbit GSK-3 (glycogen synthase kinase-3)
[1]
  time course of peptide phosphorylation by GSK-3: 9CREB and 9ECREB completely failed to be phosphorylated by GSK-3
[2]
  kinetic property (phosphorylation by GSK-3): A substrate
[3]
  time course of peptide phosphorylation by GSK-3: 9CREB and 9ECREB completely failed to be phosphorylated by GSK-3
[4]
  kinetic property (phosphorylation by GSK-3): Not a substrate
[5]
  kinetic property (phosphorylation by GSK-3): A substrate
  time course of peptide phosphorylation by GSK-3: only the phosphorylated peptide, p9CREB, was a substrate for GSK-3

## KRREILARRP[pS]YR [peptide #5 …(p)YR]
[6]
  IC50, inhibition of GSK-3 (in vitro kinase assay): 330 µM
  IC50, inhibition of GSK-3 phosphorylation of PGS-1 substrate (32P incorporation): 150 µM

## KEAPPAPPQ[pS]P [peptide #8 …(p)P]
[6]
  IC50, inhibition of GSK-3 (in vitro kinase assay): 190 µM
[7]
  Ki: 76 µM

## KEEPPAPPQ[pS]P [peptide #7 …(p)P (patterned after HSF-1 protein)]
[6]
  IC50, inhibition of GSK-3 (in vitro kinase assay): 250 µM
